T1: AGT-Ma (S81L-Ma homodimer) (Homo sapiens, UniProt P21549, S81L)
T1 sequence (P21549 1-392 S81L): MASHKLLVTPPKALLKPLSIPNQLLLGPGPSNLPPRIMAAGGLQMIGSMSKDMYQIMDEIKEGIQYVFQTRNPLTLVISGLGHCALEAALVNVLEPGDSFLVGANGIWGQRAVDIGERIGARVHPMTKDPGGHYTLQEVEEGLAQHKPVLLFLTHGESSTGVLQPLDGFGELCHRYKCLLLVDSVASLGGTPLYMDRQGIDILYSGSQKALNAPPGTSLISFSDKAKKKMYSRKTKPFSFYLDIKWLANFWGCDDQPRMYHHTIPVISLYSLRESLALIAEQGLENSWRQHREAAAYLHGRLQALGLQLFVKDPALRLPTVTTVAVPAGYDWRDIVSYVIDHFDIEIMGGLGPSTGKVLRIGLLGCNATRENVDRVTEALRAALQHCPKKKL

B1: AGT-Ma (S81L-Ma homodimer) (Homo sapiens; S81L) (protein)
chain: T1 sequence (P21549 1-392 S81L)

How the values were obtained:
[1] = target: T1, AGT-Ma (S81L-Ma homodimer); assay: CD signal change at […] nm on PLP titration of apoenzyme; type: binding
[2] = substrate: C[C@H](N)C(=O)O; assay: pyruvate formation, lactate dehydrogenase-coupled spectrophotometric assay; type: biochemical, Homo sapiens; conditions: saturating glyoxylate, 200 μM PLP, 100 mM potassium phosphate, 25°C
[3] = substrate: O=CC(=O)O; assay: as above; type: biochemical, Homo sapiens; conditions: saturating L-alanine, 200 μM PLP, 100 mM potassium phosphate, 25°C

Molecule | Kd [1] [µM] | kcat [2] [s⁻¹] | Km [3] [mM] | kcat [3] [s⁻¹]
Cc1ncc(COP(=O)(O)O)c(C=O)c1O [PLP] | 17 ± 3 | – | – | –
B1 | – | 13.9 ± 0.9 | 0.16 ± 0.02 | 13.9 ± 0.9

— publication PMC4204775 (Human Molecular Genetics, 2014)
